Assay results as given in PMC4739419, “Mutations in the nucleotide binding and hydrolysis domains of Helicobacter pylori MutS2 lead to altered biochemical activities and inactivation of its in vivo function” (BMC Microbiology, 2016).

Assays:
[1] = test system: Nc1ncnc2c1ncn2[C@@H]1O[C@H](COP(=O)(O)OP(=O)(O)OP(=O)(O)O)[C@@H](O)[C@H]1O; experiment: purified protein, by the assay type; conditions: pH 8.0; 37.0 °C
HpMutS2 = target: T1, HpMutS2 (Helicobacter pylori, UniProt O25338); format: biochemical; conditions: for support of HpMutS2 ATPase activity by metal ion: metal ion 5 mM, ATP 100 μM, HpMutS2 45 nM, 37 °C, 30 min
T1 construct: (A) HpMutS2 (1-762): Mol. wt; (kDa): 87.8; His6 (C); made in house; host or cells: E. coli Rosetta (DE3) pLysS
Method: To delineate the characteristics of the ATPase activity of HpMutS2, we initially determined the metal ion requirement for ATP hydrolysis by HpMutS2. Purified HpMutS2 was incubated with excess of cold ATP (100 μM) with or without metal ions (5 mM each), and ATP hydrolysis monitored by thin layer chromatography using radiolabeled ATP [γ-^32P] as tracer.
Additional files 1: Figure S1. Multiple sequence alignment of MutS2 proteins from different H. pylori strains. Multiple sequence alignment of MutS2 proteins from different bacteria was carried out using Clustal Omega (http://www.ebi.ac.uk/Tools/msa/clustalo/). The protein sequences were obtained from NCBI protein database. The conserved nucleotide binding Walker-A motif and nucleotde hydrolysis Walker-B motifs are framed. The arrow indicates H. pylori MutS2 protein sequence. Figure S2. ATPase activity of HpMutS2 and variants. (A) Divalent metal ion requirement for ATPase activity of HpMutS2. Mentioned divalent metal ions (5 mM each) were incubated separately with cold ATP (100 μM) with (+) or without (−) HpMutS2 (45 nM). After incubation at 37 °C for 30 min the reactions were stopped by EDTA (50 mM) and the products were separated by TLC. ATP [γ-^32P] was used as tracer to monitor the product formation. (B) Time dependent hydrolysis of ATP by HpMutS2. A mixture of cold ATP (1 mM) and ATP [γ-^32P] was incubated in presence of HpMutS2 (45 nM) at 37 °C . The reaction aliquots were removed at indicated time points. The reactions were stopped by adding EDTA (50 mM) and products were separated by TLC. […] (C) Effect of HpSmr domain deletion on ATPase activity of HpMutS2. Increasing concentrations of proteins were incubated with a mixture of cold ATP (1 mM) and ATP [γ-^32P] at 37 °C for 30 min. The reactions were processed as described in (A). […] Figure S3. Limited proteolysis. Proteins (4 μM) were incubated with chymotrypsin (1.25 ng) for 30 min at 37 °C. The heat denaturation of proteins was performed by heating them at 95 °C for 10 min. […] Reactions were stopped by adding 1X protease inhibitor cocktail (Sigma), heat denatured and the products were separated on SDS-PAGE (10 %). Lane M: Molecular weight marker. Protein bands were detected by staining with Coomassie Brilliant Blue. […]. […] (A-E) Effect of nucleotides on DNA binding properties of HpMutS2. Electrophoretic mobility shift assays were performed with indicated DNA substrates (0.16 nM) without and with nucleotides (1 mM). After incubation for 30 min on ice, the reaction mixture was electrophoresed on polyacrylamide gel (8 %). Schematic representation of DNA substrates used are shown at the left side of autoradiographs. Figure S5. Chase experiments. A preformed ssDNA-HpMutS2 complex was chased with increasing concentrations of (A) ATP (0.25–5 mM) and (B) ssDNA (7.5–500 nM). (C) A preformed SC pUC19 DNA-HpMutS2 complex was chased with increasing concentrations of ATP (0.25–5 mM) . The reactions were performed at 37 °C and the reaction mixture was electrophoresed on PAGE (8 %) in case of (A and B) or an agarose gel (0.8 %) in case of (C). The amount of displaced DNA was estimated by assuming the DNA without protein as 100 %. Figure S6. Western blot. Equal numbers of exponentially growing H. pylori cells were lysed in Laemmli buffer (1X) by boiling at 95 °C for 5 min. The proteins were separated by SDS-PAGE (10 %). The HpMutS2 and mutants were detected by probing with polyclonal antibodies against HpMutS2. Table S1. Sequence of oligonucleotides used to prepare DNA substrates. Table S2. DNA substrates used in this study (* represents position of ^32P). (PDF 636 kb)

[2] = substrate: Nc1ncnc2c1ncn2[C@@H]1O[C@H](COP(=O)(O)OP(=O)(O)OP(=O)(O)O)[C@@H](O)[C@H]1O; experiment: ATPase assay by thin layer chromatography with [γ-32P]ATP as tracer and cold ATP varied, 50 mM Tris pH 8.0, 50 mM NaCl, 1 mM DTT, 5 mM MgCl2, 37 °C, no DNA, Michaelis-Menten non-linear regression.; format: biochemical
[3] = target: the molecule itself; experiment: SEC; Superose-6 HR 10/30, buffer B (50 mM Tris pH 8.0, 100 mM NaCl), 0.3 ml/min, approximately 150 ug protein injected; mass from a plot of Ve/Vo versus log of molecular mass of standards

“HpMutS2-E413A (Helicobacter pylori 26695; E413A)” was tested, and the Km [1] was 373.2 ± 188.6 µM, the Vmax [1] was 0.19 µM/min and the kcat [1] was 0.0703 ± 0.011 s⁻¹.

`[Zn+2]` [Zn^2+] was tested, and the “support of HpMutS2 ATPase activity by metal ion” value (from here on “support”) (HpMutS2) was “allowed the ATPase activity to various extents”.

With `[Ni+2]` [Ni^2+] the “support” value (HpMutS2) was “did not significantly support the ATPase activity”.

For `[Mg+2]` [Mg^2+], the “support” value (HpMutS2) was “supported a strong ATPase activity”.

For `[Cd+2]` [Cd ^2+], the “support” value (HpMutS2) was “allowed the ATPase activity to various extents”.

In the case of `[Ca+2]` [Ca^2+], the “support” value (HpMutS2) is reported as “allowed the ATPase activity to various extents”.

In the case of `O=C(O)CN(CCN(CC(=O)O)CC(=O)O)CC(=O)O` [EDTA], the “effect on Mg2+ dependent ATPase activity” value (HpMutS2) is reported as “inhibited”.

With `[Mn+2]` [Mn^2+] the “support” value (HpMutS2) was “allowed the ATPase activity to various extents”.

`[Cu+2]` [Cu^2+] was tested, and the “support” value (HpMutS2) was “allowed the ATPase activity to various extents”.

For “HpMutS2-G338R (Helicobacter pylori 26695; G338R)”, the Km [1] was 939.3 ± 489.2 µM, the Vmax [1] was 0.64 µM/min and the kcat [1] was 0.237 ± 0.0555 s⁻¹.

For `[Co+2]` [Co^2+], the “support” value (HpMutS2) was “allowed the ATPase activity to various extents”.

B1: Helicobacter pylori MutS2 (enzyme, Helicobacter pylori strain 26695, UniProt O25338 1-762, looked up)
chain: MSDAPKRSLNPTLMMNNNNTPPKPLEESLDLKEFIALFKTFFAKERDTIALENDLKQTFTYLNEVDAIGLPTPKSVKESDLIIIKLTKLGTLHLDEIFEIVKRLHYIVVLQNAFKTFTHLKFHERLNAIVLPPFFNDLIALFDDEGKIKQGANATLDALNESLNRLKKESVKIIHHYARSKELAPYLVDTQSHLKHGYECLLLKSGFSGAIKGVVLERSANGYFYLLPESAQKIAQKIAQIGNEIDCCIVEMCQTLSHSLQKHLLFLKFLFKEFDFLDSLQARLNFAKAYNLEFVMPSFTQKKMILENFSHPILKEPKPLNLKFEKSMLAVTGVNAGGKTMLLKSLLSAAFLSKHLIPMKINAHHSIIPYFKEIHAIINDPQNSANNISTFAGRMKQFSALLSKENMLLGVDEIELGTDADEASSLYKTLLEKLLKQNNQIIITTHHKRLSVLMAENKEVELLAALYDEEKERPTYTFLKGVIGKSYAFETALRYGVPHFLIEKAKTFYGEDKEKLNVLIENSSALERELKQKNEHLENALKEQEYLKNAWLLEMEKQKEIFHNKKLELEKSYQQALNILKSEVASKDTSSMHKEIHKASEILSKHKTNQEIPQIITNFQANEKARYKNESVLIVQILDKGYYWIETELGMRLKAHGSLLKKIQKPPKNKFKPPKTTIPKPKEASLRLDLRGQRSEEALDLLDAFLNDALLGGFEEVLICHGKGSGILEKFVKEFLKNHPKVVSFSDAPINLGGSGVKIVKL
notes: MutS2 of Helicobacter pylori strain 26695, full length, cloned in pET28b; Tetramer by gel filtration; a small fraction elutes near the void volume as multimers; also called HpMutS2; wild-type HpMutS2
B1 gave a Km [2] of 412.1 ± 83.43 µM, a Vmax [2] of 1.88 µM/min and a kcat [2] of 0.696 ± 0.048 s⁻¹. The “stoichiometry N” value [3] was 4.
